In patent publication US20240034762A1 (YALE UNIVERSITY, published 2024):
No end group written: not given here.

T1: full-length human α-Klotho with a C-terminal HA-tag on HEK293 cells stably co-expressing FGFR1c (human) (UniProt Q9UEF7)
T1 sequence: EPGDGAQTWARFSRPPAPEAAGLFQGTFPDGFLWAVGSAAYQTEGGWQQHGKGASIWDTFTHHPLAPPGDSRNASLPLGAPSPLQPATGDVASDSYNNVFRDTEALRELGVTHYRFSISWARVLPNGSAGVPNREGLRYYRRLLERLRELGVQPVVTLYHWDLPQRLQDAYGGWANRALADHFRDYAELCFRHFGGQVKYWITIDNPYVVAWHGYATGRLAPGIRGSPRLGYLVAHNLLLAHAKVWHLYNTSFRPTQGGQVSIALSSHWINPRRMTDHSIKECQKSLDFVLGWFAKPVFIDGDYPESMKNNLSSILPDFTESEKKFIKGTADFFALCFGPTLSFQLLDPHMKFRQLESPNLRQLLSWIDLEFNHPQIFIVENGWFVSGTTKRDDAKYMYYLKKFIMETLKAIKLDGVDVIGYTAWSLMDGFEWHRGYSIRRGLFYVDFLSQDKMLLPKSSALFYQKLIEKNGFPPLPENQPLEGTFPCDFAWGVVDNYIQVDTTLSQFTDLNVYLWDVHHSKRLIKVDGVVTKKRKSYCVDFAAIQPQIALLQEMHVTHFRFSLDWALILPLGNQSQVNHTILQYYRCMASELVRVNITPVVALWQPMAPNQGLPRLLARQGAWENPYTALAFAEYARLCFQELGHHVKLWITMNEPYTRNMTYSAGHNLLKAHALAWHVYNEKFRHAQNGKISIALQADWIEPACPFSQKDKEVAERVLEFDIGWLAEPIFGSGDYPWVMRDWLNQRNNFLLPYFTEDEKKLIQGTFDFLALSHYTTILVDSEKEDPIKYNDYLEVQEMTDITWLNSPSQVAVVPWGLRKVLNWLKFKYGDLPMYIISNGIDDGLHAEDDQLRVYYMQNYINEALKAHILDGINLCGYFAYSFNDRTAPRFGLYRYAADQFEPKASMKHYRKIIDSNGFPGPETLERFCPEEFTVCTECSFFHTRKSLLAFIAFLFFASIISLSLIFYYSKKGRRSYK

T2: full-length human α-Klotho with a C-terminal HA-tag on HEK293 cells stably co-expressing FGFR1c (human, UniProt Q9UEF7 34-1012)
T2 sequence: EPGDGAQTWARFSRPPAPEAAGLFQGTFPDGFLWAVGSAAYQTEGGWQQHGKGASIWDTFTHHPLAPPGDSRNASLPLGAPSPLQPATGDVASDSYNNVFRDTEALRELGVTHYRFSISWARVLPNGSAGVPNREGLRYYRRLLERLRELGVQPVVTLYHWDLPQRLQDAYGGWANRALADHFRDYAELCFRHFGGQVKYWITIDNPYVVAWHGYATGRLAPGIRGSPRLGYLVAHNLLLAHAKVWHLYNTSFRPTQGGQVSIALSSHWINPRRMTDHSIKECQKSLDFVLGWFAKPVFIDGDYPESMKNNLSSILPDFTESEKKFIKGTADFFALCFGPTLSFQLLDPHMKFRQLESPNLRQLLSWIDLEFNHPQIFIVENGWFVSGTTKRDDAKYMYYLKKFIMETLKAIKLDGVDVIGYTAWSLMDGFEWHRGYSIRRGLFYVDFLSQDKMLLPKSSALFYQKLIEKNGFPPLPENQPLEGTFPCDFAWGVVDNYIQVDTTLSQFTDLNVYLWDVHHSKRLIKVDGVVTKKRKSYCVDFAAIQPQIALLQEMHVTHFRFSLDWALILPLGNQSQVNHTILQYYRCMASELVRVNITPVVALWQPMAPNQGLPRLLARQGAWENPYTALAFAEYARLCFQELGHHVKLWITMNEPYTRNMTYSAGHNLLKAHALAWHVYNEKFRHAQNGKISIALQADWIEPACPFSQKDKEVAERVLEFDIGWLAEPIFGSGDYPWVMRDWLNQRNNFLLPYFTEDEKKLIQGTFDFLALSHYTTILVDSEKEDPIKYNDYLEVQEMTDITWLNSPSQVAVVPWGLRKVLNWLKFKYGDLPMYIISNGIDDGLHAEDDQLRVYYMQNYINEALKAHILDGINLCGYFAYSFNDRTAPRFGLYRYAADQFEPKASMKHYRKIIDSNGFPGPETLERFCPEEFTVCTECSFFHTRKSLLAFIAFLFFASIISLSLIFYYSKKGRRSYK

T3: soluble extracellular domain of human α-Klotho (aa 1-980) fused to a 6xHis tag (human, UniProt Q9UEF7 34-980)
T3 construct: Secreted from HEK293 EBNA cells; also called sKLA; soluble α-Klotho
T3 sequence: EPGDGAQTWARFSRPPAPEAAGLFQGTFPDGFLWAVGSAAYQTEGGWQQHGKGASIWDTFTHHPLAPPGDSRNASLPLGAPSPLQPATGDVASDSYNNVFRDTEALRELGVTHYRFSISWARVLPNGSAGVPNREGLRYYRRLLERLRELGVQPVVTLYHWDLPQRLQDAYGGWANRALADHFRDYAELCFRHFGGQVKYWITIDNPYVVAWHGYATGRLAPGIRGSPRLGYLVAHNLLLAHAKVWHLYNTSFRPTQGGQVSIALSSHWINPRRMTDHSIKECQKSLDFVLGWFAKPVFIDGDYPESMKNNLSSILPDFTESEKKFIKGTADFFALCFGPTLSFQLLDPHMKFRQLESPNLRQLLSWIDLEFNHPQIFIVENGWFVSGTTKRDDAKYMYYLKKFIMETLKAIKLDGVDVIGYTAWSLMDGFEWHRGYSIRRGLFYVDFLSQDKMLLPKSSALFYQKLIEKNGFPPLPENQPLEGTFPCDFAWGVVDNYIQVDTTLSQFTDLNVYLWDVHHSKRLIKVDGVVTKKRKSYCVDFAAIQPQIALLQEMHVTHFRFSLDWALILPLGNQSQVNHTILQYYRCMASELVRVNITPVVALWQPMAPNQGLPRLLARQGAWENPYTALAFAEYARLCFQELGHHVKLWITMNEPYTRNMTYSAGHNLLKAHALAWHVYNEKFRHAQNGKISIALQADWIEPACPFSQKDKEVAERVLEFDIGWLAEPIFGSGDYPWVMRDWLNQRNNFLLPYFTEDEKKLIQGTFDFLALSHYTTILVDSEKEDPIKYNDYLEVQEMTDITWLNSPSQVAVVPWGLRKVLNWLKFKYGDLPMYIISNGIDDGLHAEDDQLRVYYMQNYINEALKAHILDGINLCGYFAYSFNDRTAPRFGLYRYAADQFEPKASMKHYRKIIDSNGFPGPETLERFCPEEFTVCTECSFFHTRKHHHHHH


target: T1, full-length human α-Klotho with a C-terminal HA-tag on HEK293 cells stably co-expressing FGFR1c (human); experiment: cell-based or functional assay

complete inhibition of FGF23-induced MAPK stimulation in HEK293 cells co-expressing α-Klotho and FGFR1c	Binder
100 to 250 nM	SAEDDSERDPLNVLKPRARMTPAPAS (Fc fusion, not shown: a dimerising Fc or GST, not fully specified (N-terminus); also: dimeric Fc fusion protein, Fc-R1 junction/linker not given here) [human IgG1 Fc fused to R1 (aa 180-205) of human FGF23]

target: T2, full-length human α-Klotho with a …; experiment: cell-based or functional assay

activation of MAPK response in HEK293 cells co-expressing FGFR1c and α-Klotho; ligand concentration at saturation	Binder
0.1 nM	full length human FGF23 (aa 25-251) expressed in E. coli (ligand) YPNASPLLGSSWGGLIHLYTATARNSYHLQIHKNGHVDGAPHQTIYSALMIRSEDAGFVVITGVMSRRYLCMDFRGNIFGSHYFDPENCRFQHQTLENGYDVYHSPQYHFLVSLGAAKAAFLPGMNPPPYSQFLSRRNEIPLIHFNTPIPRQHTQSAEDDSERDPLNVLKPRARMTPAPASCSQELPSAEDNSPMASDPLGVVRGGRVNTHAGGTGPEGCRPFAKFI

target: T3, soluble extracellular domain of human …; experiment: BLI; FLAG-tagged FGF23 captured by anti-FLAG M2 on anti-mouse Fc sensors, sKLA 6.25-200 nM as analyte, 1:1 fit
Protocol: FIG. 10A: BLI sensorgrams of binding of FGF23-WT, FGF23-CS, FGF23 D188A, and FGF23-CS D188A to sKLA. Biosensors coated with anti-mouse-Fc antibody was used to immobilize anti-Flag antibody followed by capturing Flag-tagged FGF23-WT or FGF23-CS. Biosensors were then dipped into solutions containing a series of concentrations of sKLA (200, 100, 50, 25, 12.5, and 6.25 nM). The resulting sensorgrams were fitted with a 1:1 ligand:receptor binding model to calculate kinetic parameters and dissociation constants. FIGS. 10B-10C: HEK293 cells stably expressing FGFR1c together with α-Klotho were left unstimulated or stimulated with increasing concentrations of FGF23-WT or FGF23-CS mutant, as indicated, for 10 minutes at 37° C. Cell lysates were subjected to SDS-PAGE and analyzed for serine phosphorylation of FGFR1, tyrosine phosphorylation of FRS2 and for MAPK activation by immunoblotting with anti-FGFR1-pS, anti-pFRS2 and anti-pMAPK antibodies, respectively and with anti-MAPK as a control. FIG. 10D: Schematic diagram depicting the bivalency of the C-terminal tail of FGF23 binding to α-Klotho.
Kinetic parameters and dissociation constants of sKLA binding to the various forms of full length FGF23 or GST-fused C-terminal fragments of FGF23 were studied using Bio-Layer Interferometry (BLI). Octet RED96 system (Pall ForteBio) equipped with anti-mouse IgG Fc (AMC) biosensors was used to study interactions between α-Klotho and FLAG-tagged FGF23. Biosensor tips were loaded with anti-FLAG M2 antibody (Millipore Sigma) at 5 μg/ml for 2 min, washed in BLI buffer (25 mM HEPES, 150 mM NaCl, pH 7.5, 0.002% Tween-20, 1 mg/mL BSA) for 60 s, and then loaded with FLAG-tagged FGF23 at 5 μg/ml for 4 min. Alternatively, anti-GST biosensor tips were loaded with 5 ug/ml GST fused with various FGF23 C-terminal fragments for 15 s. Subsequently, ligand-loaded sensor tips were dipped into microplate wells containing different sKLA concentrations, ranging from 6.25 nM to 200 nM in 2-fold dilutions of BLI buffer. After each binding cycle the sensor tips were regenerated with 10 mM glycine (pH 1.5). The collected data were referenced using a parallel buffer control subtraction, and sensograms were fitted globally to a 1:1 Langmuir binding model using ForteBio Data Analysis 10.0 software provided by the manufacturer.

Kd	koff	kon	Binder
13 nM	0.0036 s⁻¹	280000 M⁻¹ s⁻¹	FLAG-tagged human FGF23 D188A mutant expressed in Expi293F cells (ligand) DYKDDDDKYPNASPLLGSSWGGLIHLYTATARNSYHLQIHKNGHVDGAPHQTIYSALMIRSEDAGFVVITGVMSRRYLCMDFRGNIFGSHYFDPENCRFQHQTLENGYDVYHSPQYHFLVSLGAAKAAFLPGMNPPPYSQFLSRRNEIPLIHFNTPIPRQHTQSAEDDSERAPLNVLKPRARMTPAPASCSQELPSAEDNSPMASDPLGVVRGGRVNTHAGGTGPEGCRPFAKFI
18 nM	0.0044 s⁻¹	250000 M⁻¹ s⁻¹	FLAG-tagged human FGF23 C206S/C244S/D188A mutant expressed in Expi293F cells (ligand, also called FGF23-CS D188A) DYKDDDDKYPNASPLLGSSWGGLIHLYTATARNSYHLQIHKNGHVDGAPHQTIYSALMIRSEDAGFVVITGVMSRRYLCMDFRGNIFGSHYFDPENCRFQHQTLENGYDVYHSPQYHFLVSLGAAKAAFLPGMNPPPYSQFLSRRNEIPLIHFNTPIPRQHTQSAEDDSERAPLNVLKPRARMTPAPASSSQELPSAEDNSPMASDPLGVVRGGRVNTHAGGTGPEGSRPFAKFI
14 nM	0.0034 s⁻¹	260000 M⁻¹ s⁻¹	FLAG-tagged human FGF23 (aa 25-251) expressed in Expi293F cells (ligand, O-linked glycosylation (sites not given); Cys206-Cys244 disulfide bridge, also called FGF23-WT; mFGF23-WT) DYKDDDDKYPNASPLLGSSWGGLIHLYTATARNSYHLQIHKNGHVDGAPHQTIYSALMIRSEDAGFVVITGVMSRRYLCMDFRGNIFGSHYFDPENCRFQHQTLENGYDVYHSPQYHFLVSLGAAKAAFLPGMNPPPYSQFLSRRNEIPLIHFNTPIPRQHTQSAEDDSERDPLNVLKPRARMTPAPASCSQELPSAEDNSPMASDPLGVVRGGRVNTHAGGTGPEGCRPFAKFI
18 nM	0.0042 s⁻¹	230000 M⁻¹ s⁻¹	FLAG-tagged human FGF23 C206S/C244S mutant expressed in Expi293F cells (ligand, O-linked glycosylation (sites not given), also called FGF23-CS; mFGF23-CS) DYKDDDDKYPNASPLLGSSWGGLIHLYTATARNSYHLQIHKNGHVDGAPHQTIYSALMIRSEDAGFVVITGVMSRRYLCMDFRGNIFGSHYFDPENCRFQHQTLENGYDVYHSPQYHFLVSLGAAKAAFLPGMNPPPYSQFLSRRNEIPLIHFNTPIPRQHTQSAEDDSERDPLNVLKPRARMTPAPASSSQELPSAEDNSPMASDPLGVVRGGRVNTHAGGTGPEGSRPFAKFI
